Laboratory results taken from paper PMC12412652 (Science Advances, 2025).
Each block holds one binder with its values, some of them ahead of it.

What was measured:
Conditions in all cases: both partners purified
αBAK1 = target: T1, αBAK1; assay: BLI; Octet RED96; biotinylated BCL-2 family proteins (25 nM) immobilised on streptavidin biosensors, designed protein in solution; 10 mM Hepes pH 7.4, 150 mM NaCl, 3 mM EDTA, 0.05% surfactant P20, 0.5% nonfat dry milk; titrations in triplicate, 1:1 binding model
T1 construct: source: E. coli, purified

MBP-BIM-BH3 = assay: as above
[1] = target: T2, BAK-CDP02 (BAK-targeting computationally designed protein 02 of 11); assay: as above
T2 construct: Cloned into pET29b; source: E. coli, purified (Ni-NTA, SEC)

αBAK2 = target: T3, αBAK2; assay: as above
T3 construct: Form used for BLI and, as far as told, for the liposome and cytochrome c assays; source: E. coli, purified

αBAX1 = assay: as above
BCL-XL, biotinylated = BCL-XL, biotinylated (UniProt Q07817-1 1-233, biotin); assay: BLI; Octet RED96; biotinylated BCL-2 proteins (25 nM) immobilised on streptavidin biosensors; 10 mM Hepes pH 7.4, 150 mM NaCl, 3 mM EDTA, 0.05% surfactant P20, 0.5% nonfat dry milk; multiple-concentration titrations, 1:1 binding model
Sequence of BCL-XL, biotinylated (Q07817 whole entry): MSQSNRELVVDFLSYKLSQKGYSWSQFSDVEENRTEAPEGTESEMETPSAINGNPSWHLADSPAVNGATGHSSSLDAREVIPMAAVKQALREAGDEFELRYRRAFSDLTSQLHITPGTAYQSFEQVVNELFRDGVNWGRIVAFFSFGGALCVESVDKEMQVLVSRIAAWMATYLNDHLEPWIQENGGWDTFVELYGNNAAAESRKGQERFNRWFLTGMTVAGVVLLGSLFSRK

BCL-2, biotinylated = BCL-2, biotinylated (UniProt P10415 1-239, biotin); assay: as above
Sequence of BCL-2, biotinylated (P10415 whole entry): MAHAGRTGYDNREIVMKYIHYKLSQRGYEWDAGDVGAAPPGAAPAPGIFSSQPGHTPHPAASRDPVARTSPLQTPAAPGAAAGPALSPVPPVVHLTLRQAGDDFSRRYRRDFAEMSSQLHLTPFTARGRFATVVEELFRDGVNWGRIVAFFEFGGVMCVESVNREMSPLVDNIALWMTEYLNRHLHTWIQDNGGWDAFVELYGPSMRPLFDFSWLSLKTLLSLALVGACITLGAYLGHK

Kd (αBAK1): 7 nM
Kd (MBP-BIM-BH3): 4000 ± 2000 nM
Kd [1]: 60 nM
Kd (αBAK2): 0.4 nM
B1: MBP-BAK 16-186, biotinylated (Avi tag, 6-histidine tag) (domain or fragment)
chain: EPALPSASEEQVAQDTEEVFRSYVFYRHQQEQEAEGVAAPADPEMVTLPLQPSSTMGQVGRQLAIIGDDINRRYDSEFQTMLQHLQPTAENAYEYFTKIATSLFESGINWGRVVALLGFGYRLALHVYQHGLTGFLGQVTRFVVDFMLHHCIARWIAQRGGWVAALNLGNGLEGLNDIFEAQKIEWHEGSHHHHHH
modifications: biotin on the Avi tag (enzymatic, BirA)

Kd (αBAX1): 5 nM
B2: BFL-1 (natural protein)
chain: MTDCEFGYIYRLAQDYLQCVLQIPQPGSGPSKTSRVLQNVAFSVQKEVEKNLKSCLDNVNVVSVDTARTLFNQVMEKEFEDGIINWGRIVTIFAFEGILIKKLLRQQIAPDVDTYKEISYFVAEFIMNNTGEWIRQNGGWENGFVKKFEPKSG
modifications: biotin

Kd (BCL-XL, biotinylated): 2.3 ± 0.4 nM
Kd (BCL-2, biotinylated): 47 ± 5 nM
B3: MBP-BidBH3 (domain or fragment, UniProt P55957 1-195, looked up)
chain: MDCEVNNGSSLRDECITNLLVFGFLQSCSDNSFRRELDALGHELPVLAPQWEGYDELQTDGNRSSHSRLGRIEADSESQEDIIRNIARHLAQVGDSMDRSIPPGLVNGLALQLRNTSRSEEDRNRDLATALEQLLQAYPRDMEKEKTMLVLALLLAKKVASHTPSLLRDVFHTTVNFINQNLRTYVRSLARNGMD
notes: BH3 peptide of the BH3-only protein BID, fused to MBP
